Results published in article PMC3081289 (PLoS ONE, 2011).

Target: T1, human Epidermal Growth Factor Receptor 2 (HER2), extracellular domain (Homo sapiens, UniProt P04626)
T1 construct: HER2 (human Epidermal Growth Factor Receptor 2), extracellular domain (ECD); also called HER2-ECD; HER2 ECD; source: expressed and purified as described [54]
Experiment: SPR; BIAcore 3000; VEGF_(8–109) or HER2 ECD immobilised on CM5 chips; serial dilutions of Fab in PBS with 0.05% Tween20 injected at 30 µl/min; 30°C; 1:1 Langmuir fit; KD from the ratio of kon and koff
Details: both partners purified

B1: bH1 Fab (HER2/VEGF dual specific variant of Herceptin) (Fab, V domains shown)
VH: not shown
VL: DIQMTQSPSSLSASVGDRVTITCRASQDIPRSISGYVAWYQQKPGKAPKLLIYWGSYLYSGVPSRFSGSGSGTDFTLTISSLQPEDFATYYCQQHYTTPPTFGQGTKVEIK
notes: Isolated from a phage library that randomised the light chain CDRs of Herceptin [22]
- Kd: 20 nM
